Publication PMC12691745

Target: T1, proPpiA (UniProt P0AFL3)
T1 sequence: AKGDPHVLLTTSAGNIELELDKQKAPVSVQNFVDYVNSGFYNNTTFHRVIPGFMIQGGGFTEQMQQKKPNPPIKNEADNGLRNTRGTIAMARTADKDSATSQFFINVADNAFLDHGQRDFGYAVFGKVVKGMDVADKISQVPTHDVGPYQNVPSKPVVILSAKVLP

SecB, sequence (P0AG86 whole entry): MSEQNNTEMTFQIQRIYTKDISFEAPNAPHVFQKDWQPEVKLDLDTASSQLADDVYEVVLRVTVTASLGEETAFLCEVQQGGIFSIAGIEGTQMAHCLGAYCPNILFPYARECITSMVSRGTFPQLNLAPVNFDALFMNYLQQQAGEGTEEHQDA

Substance: SecB (from UniProt P0AG86 1-155) (natural protein)
- solubility of proPpiA after dilution from urea (18 µM protein, 30 min, centrifugation at 20,000× g), with 108 µM SecB; buffer control ~30% soluble: 70%
